Test results published in patent publication US20150203575A1 (Genentech, published 2015).

Assays:
[1] = biological target: T1, human COLEC12 expressed on cells (human, UniProt Q5KU26 1-742); assay: flow cytometry, transfected 293T cells, 50 µg/ml; 293T-Neo: 1.1
T1 construct: also called hCOLEC12; C-terminal his tagged hCOLEC12

[2] = biological target: T2, mouse CD99 expressed on 293T cells (mouse, UniProt Q8VCN6 29-175, sialylated O-glycans at Thr-45 and Thr-50 (cited as relevant for PILRα recognition)); assay: as above
T2 construct: whole, on cells; also called mCD99; mCD99 transfectants
T2 sequence (looked up): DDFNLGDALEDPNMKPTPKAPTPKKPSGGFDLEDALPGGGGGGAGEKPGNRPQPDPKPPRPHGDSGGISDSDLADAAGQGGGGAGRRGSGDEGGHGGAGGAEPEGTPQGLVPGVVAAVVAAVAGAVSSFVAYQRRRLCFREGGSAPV

[3] = biological target: T3, human NPDC1 expressed on cells (human, UniProt Q9NQX5 35-325); assay: as above
T3 construct: also called hNPDC1; hNPCD1
T3 sequence: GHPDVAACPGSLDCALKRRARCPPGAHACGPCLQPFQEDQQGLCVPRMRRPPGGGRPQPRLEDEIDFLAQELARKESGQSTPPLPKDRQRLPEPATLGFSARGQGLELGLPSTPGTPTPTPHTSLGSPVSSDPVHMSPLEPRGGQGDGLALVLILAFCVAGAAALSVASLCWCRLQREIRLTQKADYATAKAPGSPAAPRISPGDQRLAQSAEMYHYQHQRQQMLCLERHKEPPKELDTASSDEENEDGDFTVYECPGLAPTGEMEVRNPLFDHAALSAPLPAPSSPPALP

[4] = biological target: T4, MAG expressed on cells (human, UniProt P20916 20-626); assay: flow cytometry, transfected 293T cells, 50 µg/ml
T4 construct: Clone of the Origene human cDNA library; also called Myelin associated glycoprotein; SIGLEC4A
T4 sequence: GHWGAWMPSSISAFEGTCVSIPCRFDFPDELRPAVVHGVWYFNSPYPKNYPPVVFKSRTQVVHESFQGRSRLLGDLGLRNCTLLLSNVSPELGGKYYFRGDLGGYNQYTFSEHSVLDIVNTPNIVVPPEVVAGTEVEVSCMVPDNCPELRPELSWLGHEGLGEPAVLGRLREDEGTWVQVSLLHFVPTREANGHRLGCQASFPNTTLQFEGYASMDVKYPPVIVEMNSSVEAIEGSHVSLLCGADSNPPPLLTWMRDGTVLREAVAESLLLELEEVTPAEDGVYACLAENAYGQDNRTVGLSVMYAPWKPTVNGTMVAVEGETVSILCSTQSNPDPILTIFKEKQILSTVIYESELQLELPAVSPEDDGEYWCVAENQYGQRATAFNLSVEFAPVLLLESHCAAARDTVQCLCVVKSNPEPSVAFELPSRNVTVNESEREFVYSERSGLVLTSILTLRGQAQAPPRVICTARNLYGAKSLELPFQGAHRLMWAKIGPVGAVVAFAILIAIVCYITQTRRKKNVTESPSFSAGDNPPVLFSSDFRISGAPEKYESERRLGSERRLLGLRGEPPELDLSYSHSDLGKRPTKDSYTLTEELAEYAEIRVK

T1 sequence (Q5KU26 whole entry S522P/G606S): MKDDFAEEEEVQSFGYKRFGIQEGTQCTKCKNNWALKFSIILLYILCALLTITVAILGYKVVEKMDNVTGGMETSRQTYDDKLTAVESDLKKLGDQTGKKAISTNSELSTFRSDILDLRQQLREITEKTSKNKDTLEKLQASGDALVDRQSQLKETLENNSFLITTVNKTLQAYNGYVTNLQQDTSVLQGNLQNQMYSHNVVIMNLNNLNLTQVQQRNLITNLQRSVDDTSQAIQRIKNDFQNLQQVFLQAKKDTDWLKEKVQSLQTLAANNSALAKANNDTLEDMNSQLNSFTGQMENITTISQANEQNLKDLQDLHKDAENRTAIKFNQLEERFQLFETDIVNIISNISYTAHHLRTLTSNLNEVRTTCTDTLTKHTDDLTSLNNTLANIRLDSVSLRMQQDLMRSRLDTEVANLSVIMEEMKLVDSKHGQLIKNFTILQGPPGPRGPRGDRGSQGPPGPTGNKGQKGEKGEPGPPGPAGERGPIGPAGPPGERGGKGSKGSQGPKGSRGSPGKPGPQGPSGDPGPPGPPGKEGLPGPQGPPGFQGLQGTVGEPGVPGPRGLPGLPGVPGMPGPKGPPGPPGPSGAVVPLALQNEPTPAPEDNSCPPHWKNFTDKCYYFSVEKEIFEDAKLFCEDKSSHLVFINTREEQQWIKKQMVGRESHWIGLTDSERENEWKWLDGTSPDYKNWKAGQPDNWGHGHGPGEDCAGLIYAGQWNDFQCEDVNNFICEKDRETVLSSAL

B1: mPILRα-Fc (Fc fusion)
chain: not shown
notes: also called mouse PILRα-Fc; WT mPILRα-Fc; not shown: Fc of mouse IgG2a (PILRα-mIgG2a, called PILRα-Fc)
% cells in lower right quadrant [1]: 10.1%
% cells in lower right quadrant [2]: 46.4%
% cells in lower right quadrant [3]: 40.9%
% cells in lower right quadrant [4]: 0.55%
